{"source": "patent US20070237775A1", "about": "(Eli Lilly, published 2007)", "binders": {"B1": {"name": "Fab 3281 (Fab, V domains shown)", "VH": "QVQLQQSRAELAKPGASVKMSCKASGYTFTSYWMHWVKQGPGQGLEWIGYINPSTGYTEYTQKFKDKATLTADKSSSTAYMQLSSLTSEDSAVYYCATDGYDEDYWGQGTTLTVSS", "VL": "DAVMTQIPLTLSVTIGQPASISCRSSQSLGHSNGNTYLHWYLQKPGQSPKLLIYKVSNRFSGVPDRFSGSGSGTDFTLKISRVEAEDLGTYFCSQSTLVPWTFGGGTKLEIKR", "notes": "Murine Fab from an Omniclonal antibody library (immunized C57/Bl6 mice); kappa light chain (captured and detected with goat anti-mouse kappa)"}, "B2": {"name": "Fab 4281 (Fab, V domains shown)", "VH": "QVQLQQSRAELAKPGASVKMSCKASGYTFTSYWIHWIKQRPGQGLEWIGYIDPGIGNIEYNQKFQDKATLTADKSSSIVYMQLNRLTSEDSAVYYCATDGYDEDYWGQGTTLTVSS", "VL": "B1 VL with A2V, I7T, T10S, S12P, T14S, I15L, Q17D, P18Q, G30V", "notes": "Murine Fab, kappa light chain"}, "B3": {"name": "Fab 4731 (Fab, V domains shown)", "VH": "B1 VH", "VL": "B1 VL with A2V, I7T, T10S, S12P, T14S, I15L, Q17D, P18Q, G30V", "notes": "Murine Fab, kappa light chain"}}, "key": {"[1]": {"target": "T1, human ghrelin peptide spanning amino acids 18-28 (human)", "T1 construct": "also called hGhrelin 18-28; ghrelin peptide 18-28", "T1 peptide": "SKKPPAKLQPR", "assay": "FLIPR calcium assay, peptide competing with hGhrelin for the Fab", "protocol": "(§1) The wells are then washed twice with HBSS and 50 μL FLIPR buffer is then added per well.\n(§2) Samples are prepared by combining 7.2 μl calcium concentrate (CaCl₂-2H₂O in water at 3.7 mg/ml mixed 1:1 with HBSS and filter sterilized) with 30 μl peptide, 30 μl Fab (of varying concentration), and 16.8 μl hGhrelin (2.5 μM stock) in 3.75% BSA/50% HBSS. The final concentration of the sample solution is 0.75% BSA, and calcium at approximately the same concentration as in the FLIPR buffer. Fifty microliters of the sample solution is added to the 50 μl FLIPR buffer in the well with the AV12 cells. The final concentration of the peptide is 100 nM and the final concentration of the hGhrelin is 0.83 nM. The cell plate is shaken for about 15 seconds prior to loading it into the FLIPR instrument. Test samples or control samples are added to each well, and read by a Fluorometric Imaging Plate Reader (Molecular Devices).\n(§3) If there is no Fab or an irrelevant antibody present in the solution, the full-length hGhrelin will be free to bind the GHS-R1a receptor on the AV12 cells and signal transduction will occur resulting in comparatively high values in the assay. If a Fab is present that binds to the full-length hGhrelin in the solution, then the full-length hGhrelin binding to the GHS-R1a receptor is inhibited and signal transduction is thereby inhibited resulting in comparatively lower values in the assay. However, if a peptide (i.e., a fragment of human ghrelin) is also added to the solution and the Fab binds the peptide, then the full-length hGhrelin is not prevented from binding the GHS-R1a receptor, signal transduction is not inhibited, and the values in the assay are comparatively high. […] The peptides competing with hGhrelin for Fab binding were used in the assay at a concentration over 50 times that of hGhrelin."}, "[2]": {"target": "T2, human ghrelin peptide spanning amino acids 4-20 (human)", "T2 peptide": "FLSPEHQRVQQRKESKK", "assay": "FLIPR calcium assay, peptide competing with hGhrelin for the Fab", "protocol": "as §1, §2, §3"}, "[3]": {"target": "T3, human ghrelin peptide spanning amino acids 20-28 (human)", "T3 construct": "also called hGhrelin 20-28", "T3 peptide": "KPPAKLQPR", "assay": "peptide competition with full-length hGhrelin for the Fab"}}, "note": "Substitutions are numbered along the chain they refer to.", "data": [{"binder": "B1", "values": [{"measurement": "binding result", "setting": "[1]", "value": "no binding (tested: peptide 100 nM)"}, {"measurement": "binding result", "setting": "[2]", "value": "no binding (tested: peptide 100 nM)"}, {"measurement": "binding result", "setting": "[3]", "value": "no binding"}]}, {"binder": "B2", "values": [{"measurement": "binding result", "setting": "[2]", "value": "no binding (tested: peptide 100 nM)"}]}, {"binder": "B3", "values": [{"measurement": "binding result", "setting": "[2]", "value": "no binding (tested: peptide 100 nM)"}]}]}
